{
  "source": "paper PMC6260146",
  "biological_target": "CR3 (CD11b/CD18) on peripheral blood monocytes (human (endogenous in peripheral blood monocytes)) (UniProt P11215)",
  "assay": "flow cytometry on cells; peripheral blood monocytes preincubated with unlabelled FH5-7 (14 μg/ml, 15 min on ice by the methods; 12 μg/ml, 30 min by the legend) or PBS, then a panel of FITC-, PE- or APC-labeled receptor specific antibodies, 45 min at 4°C; read-out: mean fluorescence of FH5-7 treated cells divided by PBS treated cells",
  "data": [
    {"substance": "recombinant fragment FH5-7 of Factor H (domain or fragment)", "values": [
      {"measurement": "anti-CD11b antibody binding in the presence of FH5-7 relative to without FH5-7 (1.0) (ratio of mean fluorescence)", "result": "< 0.8"}
    ]}
  ]
}
